The DeepSol protein solubility set

assay: soluble on expression in E. coli; label from the status in PepcDB or PDB records

Q: With “MIDITLPLTDIHRHLDGNIRAQTILDLGRQFNIALPAQTLETLIPHVQVTSTEPDLVSFLTKLDWGVKVLASLDACRRVAFENIEDAARNGLHYVELRFSPGYMAMAHQLPIAGVVEAVIDGVRDGCNTFGVEARLIGIMSRTFGEAACLQELDALLAHRENITALDLAGDELGFPGSLFLSHFNRARDAGWHITVHAGEAAGPESIWQAIRELGAERIGHGVKAVEDRALMDFLAQQRIGIESCLTSNIQTSTVASLADHPLKTFLEHGVLASLNTDDPAVQGVDIIHEYHVAAPAAGLSREQIRQAQINGLEIAFLSDSEKRALREKVAEA” as the sequence, how does the “soluble on expression in E. coli” value read?
A: not soluble

Q: With “MTTTPIADQAAVLAEGMADQTPSEALEAFGAEQAELDAAGVPSGIATAGSLMPDASLLDVHGNATTLQQVREGRPAVVVFYRGAWCPYCNLALRTYERELAPRLAERGVSMIAVSPQRPDGSLTMAQTNDLSYDVLSDPGNHIGRALGIVTRPTDRVQHAQASLGLDLTEVNADGTPDILMPTVAIVDAEGVLRWIDVHPNYVTRSEPARILEALARAVR” as the sequence, how does the “soluble on expression in E. coli” value read?
A: not soluble

Q: Which “soluble on expression in E. coli” value does the source give for “MATFESSLKPRLIYVFAIADARHEGSLKIGETTLNDDVGSASTEPNSEVLNKAAKARIDQYTKTAGIGYELLYTELTIYFSGGRVCSFNDKQVHSVLERSGVKRKSFAGATEWYSCDLATVKRAISAIKEGKDSLGASEVTLSDNPIILRPEQKEAIERTLKQFRKGNKMLWNAKMRFGKTLCALRVAKEMEAVRTIIITHRPVVDASWFEDFGKTFYDRPEWHYGSRSKGESFASLEKLASQGKKCVYFASMQDMRGSKDVGGKFDKNNEVFSTSWDLVIVDEAHEGTQTELGKAVLGQLMGKDTKALHLSGTPYNLFDQHKEEEVFTWDYVMEQQAKIDWEINHLGDTNPYASLPAIHIYTYDLGRLISEYSDEEKAFNFREFFRTREDGSFVHEGDIDRFLSLLCREDEEALYPYSNEHFRQIFRHTLWILPGVRAAKALSKKLSKHPIFGLFKVANVAGDGDDEEEESRDALELVNQAIGKDPDETYTITLSCGRLTTGVSIKP” here?
A: not soluble

Q: With “MGSDKIHHHHHHMEKTLVIEHDGEKAVVWETPQIFSENDYDYEVLEKALENTGGPLKEWRKKKYQEYKEWGFPRWKRCNLDGMSLPELSFKRIDLDVDISLLEKLDFEGAHRKFVLLGDTFFTDFRVYGDGKHMMRFDGDGIENVLVVVEKEAEIYKLSSTDRFRNTVMRILVKKNASLKFFNLDFFGNFSFDNVFIVLEEGARLVLRDFKAFGYRKTGHILVKLNKSSKADMKSFFYQNGSGITDLLYLMRFEGEDAEGKLKGNGVVDGAGKIVFRGILDVKRGSKNIVAEETEHTLVLSPDARMDAIPSLWVDENDVTASHSASSSSLDEDELFYLMTRGVDEIESKKLIVRGVFNELLDELDESVKGEVENVVNRIV” as the sequence, how does the “soluble on expression in E. coli” value read?
A: not soluble

Q: For “MNYKSPVYNVTPIHYTKLQANNYNPNTVPATELKLLEKSIWEDGFTQPIVCYPLENSDKYEIIDGFHRYTIMQTSKRIREREKELLPVVILEKDTVNRIASTIRHNRARGFHNVELMSSIVGELADSGMSDSWIMKNIGMDANEILRLKQVSGLTHLFLDKEFSKASD”, which “soluble on expression in E. coli” value is on record?
A: not soluble

Q: With “DRFSTAVLALSLFQGAYTAEIFRAGLNSIPKGQFEAAQTLGLSPFYTYKDVILPQVLQRTLPPLTNEVVSLIKNSSIVSVMAIFDLTTQARNIVSETAMPFE” as the sequence, how does the “soluble on expression in E. coli” value read?
A: not soluble

Q: With “ISNHPAPEYWCSIAYFEMDVQVGETFKVPSSCPIVTVDGYVDPSGGDRFCLGQLSNVHRTEAIERARLHIGKGVQLECKGEGDVWVRCLSDHAVFVQSYYLDREAGRAPGDAVHKIYPSAYIKVFDLRQCHRQMQQQAATAQAAAAAQAAAVAGNIPGPGSVGGIAPAISLSAAAGIGVDDLRRLCILRMSFVKGWGPDYPRQSIKETPCWIEIHLHRALQLLDEVLHTMPIADPQPLD” as the sequence, how does the “soluble on expression in E. coli” value read?
A: soluble

Q: Which “soluble on expression in E. coli” value does the source give for “MTQPFNFEQALKDLQSGKSLTGKDSILGPLIKQLTEAALQAELEQHLAHDPQPNRKNGKTPKTIKHPSGNFELDAPRDRNGTFEPQLIKKNQTTLTDEIERKVLSMFSIGMSYRDINQHVEDMYGLNVSNATVSAITDKLIPELKAWQQRPLDSHYPIVWLDAIHYKVKEDGRYVSKAVYTLLALNMKGKKEILGLHLSENEGANYWLSVLADLNNRGVKDILIACVDGLTGFPEAIASIFPHTETQLCVIHQIRNSMKYVASKNQKAFMADLKPVYRAVSKEAAEMALDELEAKWGDAYPLVINSWRRKWHNLSHYFKYPEHIRKVIYTTNAVEAVHRQFRKLTKTKGAFPNENSLLKLLYAGILNASDKWTMPIHNWSLCLSQLAIYFEGRLDSVLEI” here?
A: not soluble

Q: For “MSKDFIINEQIRAREVRLIDQNGDQLGIKSKQEALEIAARRNLDLVLVAPNAKPPVCRIMDYGKFRFEQQKKEKEARK”, which “soluble on expression in E. coli” value is on record?
A: soluble

Q: With “MLEKGGIRVIDEKTLEIIVREVLTNLTSDKGTQNQQKTASSSLPKLDPKRDYPLAKNKPELAKSITGKTINEITLQAVREGKVLPDDLKISPETLLAQAEIAEAAGRKQLANNFRRAAELTKVPDKRILEIYNALRPYRSTKEELLAIADELDNAYGAKVCAAFVREAAEVYERRGRLKGME” as the sequence, how does the “soluble on expression in E. coli” value read?
A: not soluble

Q: For “MGSDKIHHHHHHMKTLKGPGIFLAQYIGDQAPFNTLENLAQWAAGLGFKALQIPCNHPHIFNLATAADSQTYCDEVKGLLAQHGLTISELSTHLEGQLVAVHPAYDDAFDDFAPPAYRRNPQARQQWAISAIKQAAKASSRLGLNAHATFSGALAWPYFYPWPPRKEALIQEAFKELGRLWTPILDCFDEHGVDVCYELHPGEDLHDGVTFERFLDVVNHHPRANILYDPSHMHLQQMDYLGFIDRYHARIKAFHVKDAEFTPSSKSGVYGGYQSWAERAGRFRSPGDGQIDFGAIFSKLAQYDYDGWAVLEWECCLKDSNCGAKEGAAFIDRHIIPVAQRAFDDFAATSDDRPLVRKMLGLKEEDAE”, which “soluble on expression in E. coli” value is on record?
A: not soluble

Q: For “MSANQEEDKKPGDGGAHINLKVKGQDGNEVFFRIKRSTQLKKLMNAYCDRQSVDMNSIAFLFDGRRLRAEQTPDELDMEDGDEIDAMLHQTGGSGGGATA”, which “soluble on expression in E. coli” value is on record?
A: soluble

Q: For “MGSDKIHHHHHHMTKKVLILGAHGKIARLAEKEFLEKTDDSLKLFLRKASRLNPVQPDRETVIEGDATNLEQLVAAMQGVDAVYANLAGGDIKQQAQAVVKAMDKVGIKRLVWISTLGIYDEVPGKFGEWNNSTLGSYITNYRAAADVIEDSDLDYTIVRPAWLTNNDEVDFEVTQKGEVFKGTEVSRKSIAHIVVELIQNNTELKHSIGVNKPNTDGDKPSWY”, which “soluble on expression in E. coli” value is on record?
A: not soluble

Q: Which “soluble on expression in E. coli” value does the source give for “MTPVQLKNYLEQLVGNQIKTSTMIWGPPGIGKSSIVAQIAEEGKLRFIDLRLSQLAPTDLRGLPVAIPTSKTKPQTGTSAWYPPEFLPKDGAGILFLDELNMAPPAMQGVAQQLILDRRVGSYEVPTDWFIWAAGNRKEDRASVFEMPAPLANRFLHLDVQPDFESFKQYALEQKYHEQVIAFLSFRPGLIHKLDLQRPAWPSPRSWAIANGLHQVNLDVSPAVGEGCAAEFSAFVQLYKDLPDLEAIFRGQGQNIGFPTEPSSGYASTIGLAVRAKDATAGVNAFHWLTDKADSEWVQLFVTDMAGQLRRAGHLGALSIMAKKEPKLKQFMQGYQELLAILEHHHHHH” here?
A: soluble

Q: For “MGHHHHHHSHMGEIESYCNKELGPLPTKAPTLSKNVLDLFSLKGKVASVTGSSGGIGWAVAEAYAQAGADVAIWYNSHPADEKAEHLQKTYGVHSKAYKCNISDPKSVEETISQQEKDFGTIDVFVANAGVTWTQGPEIDVDNYDSWNKIISVDLNGVYYCSHNIGKIFKKNGKGSLIITSSISGKIVNIPQLQAPYNTAKAACTHLAKSLAIEWAPFARVNTISPGYIDTDITDFASKDMKAKWWQLTPLGREGLTQELVGGYLYLASNASTFTTGSDVVIDGGYTCP”, which “soluble on expression in E. coli” value is on record?
A: not soluble

Q: With “MKYDLIIIGSGSVGAAAGYYATRAGLNVLMTDAHMPPHQHGSHHGDTRLIRHAYGEGEKYVPLVLRAQMLWDELSRHNEDDPIFVRSGVINLGPADSTFLANVAHSAEQWQLNVEKLDAQGIMARWPEIRVPDNYIGLFETDSGFLRSELAIKTWIQLAKEAGCAQLFNCPVTAIRHDDDGVTIETADGEYQAKKAIVCAGTWVKDLLPELPVQPVRKVFAWYQADGRYSVKNKFPAFTGELPNGDQYYGFPAENDALKIGKHNGGQVIHSADERVPFAEVVSDGSEAFPFLRNVLPGIGCCLYGAACTYDNSPDEDFIIDTLPGHDNTLLITGLSGHGFKFASVLGEIAADFAQDKKSDFDLTPFRLSRFQ” as the sequence, how does the “soluble on expression in E. coli” value read?
A: soluble

Q: With “TDTDEVINLRVVETTDIHTNLMDYDYYKDKPTQKIGLARTATLVKEARAEVTNSVLVDNGDLLQGSPMGDYMADKGIEAGEVHPAYKAMNQLDYDAGNIGNHEFNYGLEFLAESINDADFPYISANVYDAKTKEHYFKPYIIKTHKLKDTAGVEHEIKVGYIGFVPPQIMVWDKKNLEGKVFARDIKETAEELVPQMKAEGADVIVAIPHSGVSTNPYKQGEENSTYYLSEVDGIDAIAFGHSHAVFPGKGFDNLQGIDNENGTINGVAAVMPGRWGSHVGVMDLTLEQKDGKWSVVKGQSEARPIFDKTNQKSLADADKGIVQALEADHKGTRDFVNQ” as the sequence, how does the “soluble on expression in E. coli” value read?
A: not soluble

Q: For “HGDHMHNHDTKMDTMSKDMMSMEKIVVPVQQLDPQNGNKDVGTVEITESAYGLVFTPKLHDLAHGLHGFHIHEKPSCEPKEKDGKLVAGLGAGGHWDPKQTQKHGYPWSDDAHMGDLPALFVMHDGSATTPVLAPRLKKLAEVKGHSLMIHAGGDNHSDHPAPLGGGGPRMACGVIK”, which “soluble on expression in E. coli” value is on record?
A: soluble

Q: With “NAFVSIQTSTIPKTAFVARDFVPLQNRGNQWVAPVRASEDDPALAKSYLDFAIIEVPLFLHNQMDKQIYDHFMRPAINTYERLGNSVGIFAYQPMASFKRDSYFALGYPQVESNIAALNLNQTEVKPTRPEDVAQVTFKEPWSVDHHREIPTLTTNQLTTIKTKHFSGSKLSWPFDHTKSF” as the sequence, how does the “soluble on expression in E. coli” value read?
A: not soluble

Q: Which “soluble on expression in E. coli” value does the source give for “MSLRLRTLKDLDQAALLLARACALLLDDNTDVPDLRQVIFKCVPKNRLAESVSKVNELARPQNNNFHDEMVEQYGRVKRFLPAVLRDLHFRAAPAGEHVLAAIHYLAELNGSKKRILDDAPEHIITGPWKRLVYDAEGRIQRAGYSLCLLERLQDALRRRDIWLENSDRWGDPREKLLQGEEWQTQRIPVCRALGHPVDGRKGVQQLAIQLDETWKAVASRFEKNAEVHICNEGKYPSLTISCLEKQEEPPSLLRLNNRIKQLLPPVDLTELLLEIDAQTGFTHEFAHVSESGARAQDLHISLCAVLMAEACNIGLEPLIKHNIPALTRHRLSWVKQNYLRAETLVSANARLVDFQSTLELAGRWGGGEVASADGMRFVTPVKTINSGSNRKYFGSGRGITWYNFVSDQYSGFHGIVVPGTLRDSIFVLEGLLEQQTGLNPVEIMTDTAGSSDIIFGLFWLLGYQFSPRLADAGEAVFWRVNKSANYGVLDKLARGYADLSKAESQWDEMMRTAGSLKLGTIHASELIRSLLKSSRPSGLAQAIMEVGRVNKTLYLLNYIDDEDYRRRILTQLNRGEGRHAVARAICYGQRGEIRKRYREGQEDQLGALGLVTNAVVLWNTLYMEEALSWMRRNGEEIIDEDIARLSPLMHGHINMLGHYTFTLPEDILKGELRALNEGHHHHHH” here?
A: not soluble

Q: For “IIEEEQQSLTGRLNIAVLPTIAPYLLPRVFPIWKKELAGLEIHVSEMQTSRCLASLLSGEIDMAIIASKAETEGLEDDLLYYEEFLGYVSRCEPLFEQDVIRTTEVNPHRLWLLDEGHCFRDQLVRFCQMKGLHERQTAYSGGSMEAFMRLVESGQGITFIPQLTVEQLSPSQKELVRPFGMPRPVREVRLAVRQDYSRRKLREQLIGLLRSAVPSDMHKLQTGQHLAHHHH”, which “soluble on expression in E. coli” value is on record?
A: soluble

Q: For “MSAEGLDKDFCGAIIPDSFFPIEKLRNYTDMGIIREFAKGSAIIMPGEDTTSMIFLMDGKIKLDIIFEDGSEKLLYYAGSNSLIGRLYPTGNNIYATAMEQTRTCWFSEECLRVIFRTDEDMIFEIFKNYLTKVAYYARQVAEINTYNPTIRILRLFYELCSSQGKRVGDTYEITMPLSQKSIGEITGAHHVTVSKVLACLKKENILDKKKNKFIVYNLEELKHLSEQTSYY”, which “soluble on expression in E. coli” value is on record?
A: soluble
